Experimental data published in publication PMC3584105, “Acute BDNF Treatment Upregulates GluR1-SAP97 and GluR2-GRIP1 Interactions: Implications for Sustained AMPA Receptor Expression” (PLoS ONE, 2013).

Biological target: T1, GluR2 (wild type, full length, expressed in HEKTrkB cells) (UniProt P19491 22-883)
T1 construct: AMPA receptor subunit GluR2, wild type cDNA in a CMV expression vector; the deletion mutants of the same cDNA end at residue 862; also called WT GluR2; full length GluR2; source: HEKTrkB cells, transiently co-transfected (cDNA downstream from the CMV promoter), in lysate
T1 sequence (P19491 22-883): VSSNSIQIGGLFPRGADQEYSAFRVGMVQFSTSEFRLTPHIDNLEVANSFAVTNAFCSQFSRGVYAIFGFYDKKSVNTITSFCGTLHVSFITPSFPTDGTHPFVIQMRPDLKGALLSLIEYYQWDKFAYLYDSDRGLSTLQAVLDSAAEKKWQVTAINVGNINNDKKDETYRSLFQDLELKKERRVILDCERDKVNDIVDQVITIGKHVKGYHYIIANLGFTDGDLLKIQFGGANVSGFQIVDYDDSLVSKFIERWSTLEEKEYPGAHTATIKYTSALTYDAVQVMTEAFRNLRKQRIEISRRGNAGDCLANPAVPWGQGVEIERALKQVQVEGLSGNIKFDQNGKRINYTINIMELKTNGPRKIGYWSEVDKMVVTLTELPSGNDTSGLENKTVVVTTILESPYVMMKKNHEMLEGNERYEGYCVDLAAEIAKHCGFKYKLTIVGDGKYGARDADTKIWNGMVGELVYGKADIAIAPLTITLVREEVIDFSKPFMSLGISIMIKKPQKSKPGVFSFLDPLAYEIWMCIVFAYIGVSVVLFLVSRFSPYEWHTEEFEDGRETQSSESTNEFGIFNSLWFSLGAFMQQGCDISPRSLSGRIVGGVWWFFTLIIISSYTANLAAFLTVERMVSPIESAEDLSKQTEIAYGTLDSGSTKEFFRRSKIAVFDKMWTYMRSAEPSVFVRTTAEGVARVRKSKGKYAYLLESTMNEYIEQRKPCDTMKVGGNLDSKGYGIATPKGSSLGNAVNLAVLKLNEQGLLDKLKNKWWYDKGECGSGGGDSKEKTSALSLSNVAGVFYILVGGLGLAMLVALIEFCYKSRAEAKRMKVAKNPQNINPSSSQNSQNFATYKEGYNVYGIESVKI
Assay: co-IP; lysate of HEKTrkB cells co-transfected with GluR2 and GRIP1, treated with BDNF (1 h, 50 ng/mL) or not; precipitation with anti-N-terminal GluR2 and blot with anti-GRIP1, or precipitation with anti-GRIP1 and blot with anti-C-terminal GluR2/3
Settings: partners not purified

B1: GRIP1 (expressed in HEKTrkB cells) (natural protein, UniProt P97879 1-1112, looked up)
chain: MIAVSFKCRCQILRRLTKDESPYTKSASQTKPPDGALAVRRQSIPEEFKGSTVVELMKKEGTTLGLTVSGGIDKDGKPRVSNLRQGGIAARSDQLDVGDYIKAVNGINLAKFRHDEIISLLKNVGERVVLEVEYELPPVSIQGSSVMFRTVEVTLHKEGNTFGFVIRGGAHDDRNKSRPVVITCVRPGGPADREGTIKPGDRLLSVDGIRLLGTTHAEAMSILKQCGQEATLLIEYDVSVMDSVATASGPLLVEVAKTPGASLGVALTTSVCCNKQVIVIDKIKSASIADRCGALHVGDHILSIDGTSMEYCTLAEATQFLANTTDQVKLEILPHHQTRLALKGPDHVKIQRSDRQLPWDPWASSQCSVHTNHHHNPHHPDHCRVPALGFPKALTPNSPPAMVSSSSPTSMSAYSLSSLNMGTLPRSLYSTSPRGTMMRRRLKKKDFKSSLSLASSTVGLAGQVVHTETTEVVLTADPVTGFGIQLQGSVFATETLSSPPLISYIEADSPAERCGVLQIGDRVMAINGIPTEDSTFEEANQLLRDSSITSKVTLEIEFDVAESVIPSSGTFHVKLPKKHSVELGITISSPSSRKPGDPLVISDIKKGSVAHRTGTLELGDKLLAIDNIRLDSCSMEDAVQILQQCEDLVKLKIRKDEDNSDEQESSGAIIYTVELKRYGGPLGITISGTEEPFDPIIISSLTKGGLAERTGAIHIGDRILAINSSSLKGKPLSEAIHLLQMAGETVTLKIKKQTDAQPASSPKKLPIPSHSSDLGDGEEDPSPIQRPGKLSDVYPSTVPSVDSAVDSWDGSGIDARYGSQGTTFQTSGYNFNTYDWRSPKKRASLSPVPKPRSQTYPDVGLSNEDWDRSTASGFAGASDSADAEQEENFWSQALEDLETCGQSGILRELEATIMSGSTMSLNHEAPTARSQLGRQASFQERSNSRPHYSQTTRSNTLPSDVGRKSVTLRKMKQEIKEIMSPTPVELHKVTLYKDSGMEDFGFSVADGLLEKGVYVKNIRPAGPGDLGGLKPYDRLLQVNHVRTRDFDCCLVVPLIAESGNKLDLVISRNPLASQKSIEQPALPSDWSEQNSAFFQQPSHGGNLETREPTNTL
notes: source: HEKTrkB cells, transiently co-transfected (cDNA downstream from the CMV promoter), in lysate
  fold change of the co-precipitate, 1 h BDNF against untreated cells: ~6 fold
